Assay results taken from US20220348651A1, “ENTPD2 ANTIBODIES, COMBINATION THERAPIES, AND METHODS OF USING THE ANTIBODIES AND COMBINATION THERAPIES” (Novartis AG, priority 2019, published 2022).

What was measured:
[1] = tested on: human ENTPD2 engineered B16LM3 clone B5; assay: Human ENTPD2 engineered B16LM3 clone B5 model, dose response with anti-PD-1 Ab; format: in vivo
Source text: This model was derived from the B16LM3 melanoma model, where endogenous mouse ENTPD2 expression was knocked out via a transient electroporation of CAS9 protein with CRISPR guide RNA sequences against mouse ENTPD2, and human ENTPD2 was overexpressed using a retroviral transduction approach.
Once tumors reached approximately 35-50 mm^3, mice were randomized according to tumor volume into treatment groups (n=8 per group). […] All doses were adjusted to individual mouse body weights.

[2] = biological target: T1, Human ENTPD1 (Homo sapiens, UniProt P49961); assay: Cross reactivity: FACS binding to human ENTPD1 expressing NIH/3T3 cells; conditions: NIH/3T3-ENTPD1 cells, 50 nM antibody
T1 construct: expressed in transfected cells; host or cells: NIH/3T3 (retroviral transduction, FACS-sorted)
T1 sequence (P49961 1-510): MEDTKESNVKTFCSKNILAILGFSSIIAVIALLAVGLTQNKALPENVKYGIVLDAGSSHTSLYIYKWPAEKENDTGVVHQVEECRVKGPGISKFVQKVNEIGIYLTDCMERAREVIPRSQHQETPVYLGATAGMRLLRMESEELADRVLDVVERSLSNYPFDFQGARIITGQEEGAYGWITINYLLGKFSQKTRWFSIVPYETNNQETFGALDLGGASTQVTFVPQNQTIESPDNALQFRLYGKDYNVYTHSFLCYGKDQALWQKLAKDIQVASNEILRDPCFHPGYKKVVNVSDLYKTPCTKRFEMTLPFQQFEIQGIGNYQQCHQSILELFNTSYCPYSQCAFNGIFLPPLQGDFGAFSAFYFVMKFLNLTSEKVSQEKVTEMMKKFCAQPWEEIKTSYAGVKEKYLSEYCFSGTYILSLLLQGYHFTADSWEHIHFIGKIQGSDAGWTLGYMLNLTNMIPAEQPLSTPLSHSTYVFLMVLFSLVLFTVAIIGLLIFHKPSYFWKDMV
Protocol: (§1) FACS screening: Specific binding of candidate antibodies to endogenously expressed ENTPD2 was assessed by flow cytometry. Cells were rinsed thoroughly with 1×PBS and treated with Accutase (Millipore #SCR005) to lift from growth plates and resuspended at approximately 1×10^5 cells/90 μL in 1× FACS buffer (2% FBS+0.1% NaN3 in PBS). In a 96-well U-bottom plate, 10 μL of 10× antibody solution in FACS buffer was pre-seeded and 90 μL of cell suspension was added. Cell were incubated for 30 minutes at 4° C., washed 1× with cold PBS and resuspended in 100 μL of 1:500 secondary antibody 1× FACS buffer (Allophycocyanin conjugated F(ab′)2 goat anti-human IgG, Fcγ specific; Jackson Immunoresearch, Cat#109-136-098). After additional incubation for 15 min at 4° C., cells were washed twice with PBS and resuspended in 100 μL of 1×FACS buffer with 4 μg/mL propidium iodide (Life Technologies, Cat#P3566). Geometric mean fluorescence intensity was calculated on live single cells using FlowJo software.
(§2) Cross reactivity Human ENTPD1 (NP_001767) expressing NIH/3T3 cells were generated using a retroviral transduction approach. 72 hrs post transduction, engineered cells were stained with the anti-Human CD39/ENTPD1 APC-conjugated Antibody (R&D systems, Minneapolis, Minn.) and live cells that expressed human ENTPD1 were separated from the rest of the population via fluorescence activated cell sorting. […]

[3] = tested on: H520 cells; assay: Cross reactivity: FACS binding to H520 cells (ENTPD3 and ENTPD8 expression); design: species or system human; conditions: 50 nM antibody
Protocol: as §1
H520 cells were identified as a cancer cell line with ENTPD3 (Ct 25) and ENTPD8 (Ct 26) expression by Taqman and were used for selectivity screening.

[4] = tested on: cynomologus (cyno) ENTPD2; assay: Biacore (SPR) affinity to cyno ENTPD2 ECD; format: binding, cynomolgus monkey; conditions: 25° C.
Sequence of cynomologus (cyno) ENTPD2 (as listed by the source): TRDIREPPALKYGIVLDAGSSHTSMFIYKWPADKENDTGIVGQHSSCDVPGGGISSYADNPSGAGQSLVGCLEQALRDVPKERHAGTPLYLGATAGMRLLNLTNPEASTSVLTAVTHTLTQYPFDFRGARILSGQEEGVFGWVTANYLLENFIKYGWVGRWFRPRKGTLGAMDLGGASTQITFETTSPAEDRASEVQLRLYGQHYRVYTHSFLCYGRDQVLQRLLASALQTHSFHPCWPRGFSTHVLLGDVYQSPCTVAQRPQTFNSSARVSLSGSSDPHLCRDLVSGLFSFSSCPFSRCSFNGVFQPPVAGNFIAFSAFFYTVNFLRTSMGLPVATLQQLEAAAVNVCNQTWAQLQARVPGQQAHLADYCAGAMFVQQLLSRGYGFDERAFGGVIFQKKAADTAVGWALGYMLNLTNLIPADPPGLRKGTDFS
Protocol: (§3) Biacore Screening: Affinity was measured by determining the kinetic rate constants using surface plasmon resonance (SPR) on a Biacore T200 or T100 with the T200 sensitivity upgrade instrument (Biacore, GE Healthcare). Antibodies were captured on CM5 sensor chips (Biacore, GE Healthcare) prepared with a mouse anti-human IgG Fc antibody (ThermoFisher catalogue #05-4200) amine coupled to the surface. […] ENTPD2 analytes were allowed to associate for 180 s and dissociate for up to 1800 s depending on the off-rate of the antibody at a flow rate of 30 μL/min. The running buffer was PBS pH 7.2 (prepared from a Corning 10X stock, cat#46-013-CM)+0.05% Tween 20. Regeneration was accomplished with 30 s injections of 3 or 4 M MgCl2 to remove all the captured antibody and remaining complex from the surface, after which fresh antibody was captured. The raw data were analyzed using Biacore T200 Evaluation Software version 1.0 and fit to a 1:1 binding model, with all parameters set to fit globally except for RI, which was set to fit locally.

[5] = biological target: T2, human ENTPD2 (Homo sapiens, UniProt Q9Y5L3); assay: Biacore (SPR) affinity to human ENTPD2 ECD; format: binding; conditions: 25° C.
T2 construct: residues 29-462 of human or cyno ENTPD2 were cloned into expression vector; GP67 signal peptide (N); made in house; host or cells: High Five (Trichoplusia ni) insect cells, baculovirus
T2 sequence (Q9Y5L3 29-462): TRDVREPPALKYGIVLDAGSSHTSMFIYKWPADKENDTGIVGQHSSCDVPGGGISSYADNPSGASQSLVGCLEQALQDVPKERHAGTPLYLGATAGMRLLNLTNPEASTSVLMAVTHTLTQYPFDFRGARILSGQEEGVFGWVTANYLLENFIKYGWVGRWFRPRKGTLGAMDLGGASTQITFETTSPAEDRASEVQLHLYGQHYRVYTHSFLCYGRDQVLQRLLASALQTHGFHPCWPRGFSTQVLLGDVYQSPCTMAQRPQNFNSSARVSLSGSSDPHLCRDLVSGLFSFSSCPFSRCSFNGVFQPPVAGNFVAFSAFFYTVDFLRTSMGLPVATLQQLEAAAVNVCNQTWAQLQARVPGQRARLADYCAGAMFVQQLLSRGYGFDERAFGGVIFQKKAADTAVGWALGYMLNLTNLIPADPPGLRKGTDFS
Protocol: as §3

[6] = biological target: T3, mouse ENTPD2 (Mus musculus, UniProt O55026); assay: Antibody specificity: binding to mouse ENTPD2; conditions: Mouse ENTPD2
T3 construct: residues 29-462 of mouse or rat ENTPD2 (the extracellular domain); mouse IgK signal peptide (N); His6; made in house; host or cells: FreeStyle 293-F cells, transient transfection
T3 sequence (O55026 29-462): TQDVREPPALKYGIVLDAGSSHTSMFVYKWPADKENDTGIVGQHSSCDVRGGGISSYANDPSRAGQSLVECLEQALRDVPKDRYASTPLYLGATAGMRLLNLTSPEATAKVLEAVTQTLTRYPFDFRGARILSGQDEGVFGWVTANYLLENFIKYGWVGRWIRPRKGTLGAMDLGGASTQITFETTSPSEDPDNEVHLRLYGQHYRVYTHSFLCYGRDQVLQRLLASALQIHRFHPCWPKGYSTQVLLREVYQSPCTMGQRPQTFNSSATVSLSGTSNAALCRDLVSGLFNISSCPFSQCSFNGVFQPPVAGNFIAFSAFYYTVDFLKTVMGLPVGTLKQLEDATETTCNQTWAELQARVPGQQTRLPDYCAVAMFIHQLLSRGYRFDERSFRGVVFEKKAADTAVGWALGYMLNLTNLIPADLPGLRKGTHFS
Source text: Antibody specificity for mAbl-mAblO was confirmed. […] Antibodies mAb8, mAb9, and mAb10 show weak affinity to mouse ENTPD2. None of the selected antibodies bind to rat ENTPD2.

[7] = tested on: NIH/3T3 cells; assay: Cross reactivity: FACS binding to NIH/3T3 control cells; conditions: 50 nM antibody
Protocol: as §1, §2

[8] = Day 7, mAb 10 mg/kg dosed D1, no anti-PD-1 Ab

B1: mAb6: humanized anti-human ENTPD2 antibody from mAb16; VH SEQ ID NO: 70, VL SEQ ID NO: 74 (antibody, V domains shown)
VH: QVQLQESGPGLVKPSQTLSLTCTVSGYSITSGYYWNWIRQHPGKGLEWMGYISYDADNNYNPSLKNRITISRDTSKNQFSLKLSSVTAADTAVYYCAGGYYRYGLGSYSGSYYYVMDYWGQGTTVTVSS
VL: DTQMTQSPSSLSVSVGDRATITCKASQSVDYEGHSYMNWYQQKPGKAPKLLIYAASNLESGVPSRFSGSGSGTDFTLTISSVQPEDFATYYCQQSNEDPPTFGGGTKLEIK
ΔT/ΔC ([1]; 0.1 mg/kg i.v. day 1, combination with anti-PD-1 Ab fixed dose 10 mg/kg, Day 7): 41.0% | ΔT/ΔC ([1]; 1 mg/kg i.v. day 1, combination with anti-PD-1 Ab fixed dose 10 mg/kg, Day 7): 27.3% | ΔT/ΔC ([1]; 10 mg/kg i.v. day 1, combination with anti-PD-1 Ab fixed dose 10 mg/kg, Day 7): 29.2% | Host Response Survival (alive/total) [1, 8]: 8/8 | Host Response Δ body weight [1, 8]: −0.1% | Tumor Response ΔT/ΔC [1, 8]: 60.0% | anti-tumor efficacy ([1]; as single agents, i.v. day 1): No significant anti-tumor efficacy | Apparent FACS binding at 50 nM [2]: No binding | Apparent FACS binding at 50 nM [3]: No binding | ka [4]: 290000 M⁻¹ s⁻¹ | kd [4]: 0.01 s⁻¹ | ka [5]: 350000 M⁻¹ s⁻¹ | kd [5]: 0.00026 s⁻¹ | BIACore KD [6]: No binding | Apparent FACS binding at 50 nM [7]: No binding
